B1: 010417-B04 (protein)
chain: MALPVTALLLPLALLLHAARPLEGKPIPNPLLGLDSTGSGEDLKNVFPPEVAVFEPSKAEIAHTQKATLVCLATGFYPDHVELSWWVNGKEVHSGVCTDPQPLKEQPALNDSRYCLSSRLRVSATFWQNPRNHFRCQVQFYGLSENDEWTQDRAKPVTQIVSAEAWGRADCGITSASYHQGVLSATILYEILLGKATLYAVLVSALVLMAMVKRKDSRGRAKRSGSGATNFSLLKQAGDVEENPGPTSTMALPVTALLLPLALLLHAARPDEIVLTQSPATLSLSPGERATLSCSASSSVSYMHWYQQKPGQAPRLLIYDTSKLASGIPARFSGSGSGTDFTLTISSLEPEDVAVYYCFQGSVYPFTFGQGTKLEIKRGGGGSGGGGSGGGGSQVQLQESGPGLVKPSQTLSLTCTVSGGSISTSGMGVGWIRQHPGKGLEWIGHIWWDDDKRYNPALKSRVTISVDTSKNQFSLKLSSVTAADTAVYYCARMELWSYYFDYWGQGTLVTVSSTREAAAKDDIVMTQSPDSLTVSLGERTTINCKSSQSVLDSSKNKNSLAWYQQKPGQPPKLLLSWASTRESGIPDRFSGSGSGTDFTLTIDSLQPEDSATYYCQQSAHFPITFGQGTRLEIKGGGGSGGGGSGGGGSQVQLVQSGAEVKKPGASVKVSCKASGYTFTNYGMNWVKQAPGQGLKWMGWINTYTGEPTYADDFKGRVTMTSDTSTSTAYLELHNLRSDDTAVYYCARWSWSDGYYVYFDYWGQGTTVTVSSTREQKLISEEDGSGIQNPDPAVYQLRDSKSSDKSVCLFTDFDSQTNVSQSKDSDVYITDKCVLDMRSMDFKSNSAVAWSNKSDFACANAFNNSIIPEDTFFPSSDVPCDVKLVEKSFETDTNLNFQNLSVIGFRILLLKVAGFNLLMTLRLWSSRAKRSGSGVKQTLNFDLLKLAGDVESNPGPSRGHMTEYKPTVRLATRDDVPRAVRTLAAAFADYPATRHTVDPDRHIERVTELQELFLTRVGLDIGKVWVADDGAAVAVWTTPESVEAGAVFAEIGPRMAELSGSRLAAQQQMEGLLAPHRPKEPAWFLATVGVSPDHQGKGLGSAVVLPGVEAAERAGVPAFLETSAPRNLPFYERLGFTVTADVEVPEGPRTWCMTRKPGA
B2: 041216 C02 (protein)
chain: MALPVTALLLPLALLLHAARPDEIVLTQSPATLSLSPGERATLSCSASSSVSYMHWYQQKPGQAPRLLIYDTSKLASGIPARFSGSGSGTDFTLTISSLEPEDVAVYYCFQGSVYPFTFGQGTKLEIKRGGGGSGGGGSGGGGSQVQLQESGPGLVKPSQTLSLTCTVSGGSISTSGMGVGWIRQHPGKGLEWIGHIWWDDDKRYNPALKSRVTISVDTSKNQFSLKLSSVTAADTAVYYCARMELWSYYFDYWGQGTLVTVSSLEGKPIPNPLLGLDSTGSGEDLKNVFPPEVAVFEPSKAEIAHTQKATLVCLATGFYPDHVELSWWVNGKEVHSGVCTDPQPLKEQPALNDSRYCLSSRLRVSATFWQNPRNHFRCQVQFYGLSENDEWTQDRAKPVTQIVSAEAWGRADCGITSASYHQGVLSATILYEILLGKATLYAVLVSALVLMAMVKRKDSRGRAKRSGSGATNFSLLKQAGDVEENPGPTSMALPVTALLLPLALLLHAARPDIQMTQSPATIENTSLSASVGDRVTITCRASQGISSWLTWYQQKPEKAPKSLIYAASSLQSGVPSRFSGSGSGTDFTLTISSLQPEDFATYYCQQYDSYPITFGQGTRLEIKGGGGSGGGGSGGGGSQVQLQQWGAGLLKPSETLSLTCAVYGGSFSAYYWSWIRQPPGKGLEWIGDINHGGGTNYNPSLKSRVTISVDTSKNQFSLKLNSVTAADTAVYYCASLTAYWGQGSLVTVSSTREQKLISEEDGSGIQNPDPAVYQLRDSKSSDKSVCLFTDFDSQTNVSQSKDSDVYITDKCVLDMRSMDFKSNSAVAWSNKSDFACANAFNNSIIPEDTFFPSSDVPCDVKLVEKSFETDTNLNFQNLSVIGFRILLLKVAGFNLLMTLRLWSSRAKRSGSGVKQTLNFDLLKLAGDVESNPGPSRGHMTEYKPTVRLATRDDVPRAVRTLAAAFADYPATRHTVDPDRHIERVTELQELFLTRVGLDIGKVWVADDGAAVAVWTTPESVEAGAVFAEIGPRMAELSGSRLAAQQQMEGLLAPHRPKEPAWFLATVGVSPDHQGKGLGSAVVLPGVEAAERAGVPAFLETSAPRNLPFYERLGFTVTADVEVPEGPRTWCMTRKPGA
modifications: Synthetic polynucleotide encoding a SIR
B3: 030217-E05 (protein)
chain: MALPVTALLLPLALLLHAARPDEIVLTQSPATLSLSPGERATLSCSASSSVSYMHWYQQKPGQAPRLLIYDTSKLASGIPARFSGSGSGTDFTLTISSLEPEDVAVYYCFQGSVYPFTFGQGTKLEIKRGGGGSGGGGSGGGGSQVQLQESGPGLVKPSQTLSLTCTVSGGSISTSGMGVGWIRQHPGKGLEWIGHIWWDDDKRYNPALKSRVTISVDTSKNQFSLKLSSVTAADTAVYYCARMELWSYYFDYWGQGTLVTVSSLEGKPIPNPLLGLDSTGSGEDLKNVFPPEVAVFEPSKAEIAHTQKATLVCLATGFYPDHVELSWWVNGKEVHSGVCTDPQPLKEQPALNDSRYCLSSRLRVSATFWQNPRNHFRCQVQFYGLSENDEWTQDRAKPVTQIVSAEAWGRADCGITSASYHQGVLSATILYEILLGKATLYAVLVSALVLMAMVKRKDSRGRAKRSGSGATNFSLLKQAGDVEENPGPTSTMALPVTALLLPLALLLHAARPDEIVLTQSPGSLAVSPGERVTMSCKSSQSVFFSSSQKNYLAWYQQIPGQSPRLLIYWASTRESGVPDRFTGSGSGTDFTLTISSVQPEDLAIYYCHQYLSSRTFGQGTKLEIKRGGGGSGGGGSGGGGSQVQLQQPGAEVVKPGASVKMSCKASGYTFTSYYIHWIKQTPGQGLEWVGVIYPGNDDISYNQKFQGKATLTADKSSTTAYMQLSSLTSEDSAVYYCAREVRLRYFDVWGQVTTVTVSSTREQKLISEEDGSGIQNPDPAVYQLRDSKSSDKSVCLFTDFDSQTNVSQSKDSDVYITDKCVLDMRSMDFKSNSAVAWSNKSDFACANAFNNSIIPEDTFFPSSDVPCDVKLVEKSFETDTNLNFQNLSVIGFRILLLKVAGFNLLMTLRLWSSRAKRSGSGVKQTLNFDLLKLAGDVESNPGPSRGHMTEYKPTVRLATRDDVPRAVRTLAAAFADYPATRHTVDPDRHIERVTELQELFLTRVGLDIGKVWVADDGAAVAVWTTPESVEAGAVFAEIGPRMAELSGSRLAAQQQMEGLLAPHRPKEPAWFLATVGVSPDHQGKGLGSAVVLPGVEAAERAGVPAFLETSAPRNLPFYERLGFTVTADVEVPEGPRTWCMTRKPGA
B4: 030217-H02 (protein)
chain: MALPVTALLLPLALLLHAARPDEIVLTQSPATLSLSPGERATLSCSASSSVSYMHWYQQKPGQAPRLLIYDTSKLASGIPARFSGSGSGTDFTLTISSLEPEDVAVYYCFQGSVYPFTFGQGTKLEIKRGGGGSGGGGSGGGGSQVQLQESGPGLVKPSQTLSLTCTVSGGSISTSGMGVGWIRQHPGKGLEWIGHIWWDDDKRYNPALKSRVTISVDTSKNQFSLKLSSVTAADTAVYYCARMELWSYYFDYWGQGTLVTVSSLEGKPIPNPLLGLDSTGSGEDLKNVFPPEVAVFEPSKAEIAHTQKATLVCLATGFYPDHVELSWWVNGKEVHSGVCTDPQPLKEQPALNDSRYCLSSRLRVSATFWQNPRNHFRCQVQFYGLSENDEWTQDRAKPVTQIVSAEAWGRADCGITSASYHQGVLSATILYEILLGKATLYAVLVSALVLMAMVKRKDSRGRAKRSGSGATNFSLLKQAGDVEENPGPTSMALPVTALLLPLALLLHAARPDIQMTQSTSSLSASLGDRVTISCSASQGINNYLNWYQQKPDGTVELLIYYTSTLQSGVPSRFSGSGSGTDYSLTISNLEPEDIGTYYCQQYSKLPRTFGGGTKLEIKGGGGSGGGGSGGGGSQVQLQQSGSELMMPGASVKISCKATGYTFSNYWIEWVKQRPGHGLEWIGEILPGTGRTIYNEKFKGKATFTADISSNTVQMQLSSLTSEDSAVYYCARRDYYGNFYYAMDYWGQGTSVTVSSTREQKLISEEDGSGIQNPDPAVYQLRDSKSSDKSVCLFTDFDSQTNVSQSKDSDVYITDKCVLDMRSMDFKSNSAVAWSNKSDFACANAFNNSIIPEDTFFPSSDVPCDVKLVEKSFETDTNLNFQNLSVIGFRILLLKVAGFNLLMTLRLWSSRAKRSGSGVKQTLNFDLLKLAGDVESNPGPSRGHMTEYKPTVRLATRDDVPRAVRTLAAAFADYPATRHTVDPDRHIERVTELQELFLTRVGLDIGKVWVADDGAAVAVWTTPESVEAGAVFAEIGPRMAELSGSRLAAQQQMEGLLAPHRPKEPAWFLATVGVSPDHQGKGLGSAVVLPGVEAAERAGVPAFLETSAPRNLPFYERLGFTVTADVEVPEGPRTWCMTRKPGA

Test system: target antigen-expressing cell line
Experiment: Jurkat NFAT-GFP assay, coculture with target cell lines expressing the respective target antigen (summary Table 10A)
Type: cell-based, human
Parameters: key: The signs +/−, +, 2+ etc. after the name of the cell lines indicate the relative degree of positivity on the Jurkat-NFAT-GFP assay as measured by the % GFP positive cells; +: relative degree of positivity on the Jurkat-NFAT-GFP assay as measured by the % GFP positive cells; 2+: relative degree of positivity on the Jurkat-NFAT-GFP assay as measured by the % GFP positive cells
Conditions: relative % GFP positive cells; for NFAT-GFP ASSAY Positive Cell lines: NALM6: SIR-expressing Jurkat-NFAT-GFP cells cocultured with NALM6; for NFAT-GFP ASSAY Positive Cell lines: RAJI: SIR-expressing Jurkat-NFAT-GFP cells cocultured with RAJI
How it was run: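 Stable SIR expression in Jurkat-NFAT-GFP cells by lentiviral transfer and puromycin selection; coculture with target cells (E:T approximately 1:2) for 4 to 18 hours; flow cytometric measurement of NFAT-driven GFP; scoring as positive when % GFP-positive cells exceeds that of parental reporter cells.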

Molecule	NFAT-GFP ASSAY Positive Cell lines: HL60 (SIR-expressing Jurkat-NFAT-GFP cells cocultured with HL60)	NFAT-GFP ASSAY Positive Cell lines: NALM6	NFAT-GFP ASSAY Positive Cell lines: RAJI	NFAT-GFP ASSAY Positive Cell lines: L428 (SIR-expressing Jurkat-NFAT-GFP cells cocultured with L428)
B1	+/−	+	RAJI (+), NALM6	–
B2	–	–	–	L428 (+/−)
B3	–	–	RAJI (+)	–
B4	–	(+)	RAJI (2+), NALM6	–
